This data set deals with the molecule itself. Put plainly: co-IP.

B1: Slk19 (recombinant; Slk19-HA-His and Slk19-Myc-His) (natural protein, budding yeast, UniProt Q08581 1-821, looked up)
chain: MNEVPTTPVRLILGQAQQREQNSENCSQERNPRTFNSEPDSSFNSPGSSQFVIHPHEPLEKEKDEKQDLDRSIDYGRSSALNNKNNANPLENIDINKMFDDKKSDSGTNDDKGGASTSDKHVLALNYSPIRVEMNSSEKRSDKNVDVDENDKEGSHINKKLKLQLESVPDLKQSSTKDIINDKEEIMSSPMAIDMIETNISPNKFIINDGVERNDSFNINTDTLKLENDINEKQQEEDFIKSNSNNVVNIDNAYKEKEDEENDITNSHINRLTPLYETSARESNSNEEGRNDYDDDNQLDIRHDNFQIVAKRNEELTDQIYHLNQMLNSLISKNESLSFQYEKLNKNHQLLIDLTNEKLDKLNTERESDIAKVEKFKKRIKELNTEIKVLNSNQKILQEKFDASITEVNHIKGEHENTVNTLQQNEKILNDKNVELENMKAELKGNNDKLSEYETTLNDLNSRIVQLNDKIESTDIVLKSKENELDNLKLSLKETLSISKDFNDSDLIGQINELISTKNNLQQKMDDLNNLNDDNLKVVQDKLIKNEETLKLKEAEIDSLNSEMDELKKQITSKDDEFKMWQSKYETVEDEAKIRNAEVTELNGDIEDLKESKLHLEETITELENKVHKLENECELEKQKFEKTSLELESLQLKNSNIQAEHIKELENLHENLISLQNELKISSDRITTLTKENEVLMEQNNNNNNSVTLSNDQKDRDDEKIKSLGKQVQDWKEKYEAKEKDTNKRLKLLAEDLYIQYSSKHEQKVKLLKKGYENKYQNKFDQLNLENKTLSEEIEQLNKQLSSEREEKQELLKLLENEKK
As for B1, the binding result is “binds”.

The values above are taken from publication PMC3583661 (Molecular Biology of the Cell, 2013).
